Assay results from patent US10927178B2, “Anti-CXCR4 antibodies and antibody-drug conjugates” (PFIZER INC., priority 2013, dated 2021).

Legend:
[1] = molecular target: T1, CXCR4 (CXCR4-expressing HPB-ALL cells) (Homo sapiens, UniProt P61073); experiment: Flow cytometry binding of humanized 3G10 Fabs to HPB-ALL cells (Example 2); settings: for MFI 0.25 μg/ml: Fab 0.25 μg/ml; for MFI 2.5 μg/ml: Fab 2.5 μg/ml
T1 construct: endogenous in cells; host or cells: HPB-ALL (human T cell leukemia)
Description: 150,000 cells were incubated with various h3G10 Fabs at either 2.5 or 0.25 μg/mL in 100 uL binding buffer (PBS+0.5% BSA), followed by incubation with APC-conjugated goat anti-human Fab-specific secondary antibody from R&D systems.

[2] = molecular target: T2, human CXCR4-enriched lipoparticles (Homo sapiens, UniProt P61073); experiment: Biosensor affinity measurement of Fabs on CXCR4-enriched lipoparticles; format: binding; settings: Fab; kinetic titration
T2 construct: purchased Integral Molecular, Philadelphia Pa; LEV101
T2 sequence (P61073 whole entry): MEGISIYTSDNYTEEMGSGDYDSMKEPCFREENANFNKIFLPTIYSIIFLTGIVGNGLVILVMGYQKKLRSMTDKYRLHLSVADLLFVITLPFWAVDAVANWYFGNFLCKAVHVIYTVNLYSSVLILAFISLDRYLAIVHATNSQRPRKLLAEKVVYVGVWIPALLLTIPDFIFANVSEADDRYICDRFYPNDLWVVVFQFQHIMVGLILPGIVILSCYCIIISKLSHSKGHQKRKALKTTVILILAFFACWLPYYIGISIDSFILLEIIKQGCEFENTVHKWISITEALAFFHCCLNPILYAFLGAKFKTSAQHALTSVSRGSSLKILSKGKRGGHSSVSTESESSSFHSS
Description: One way of determining binding affinity of antibodies to CXCR4 is by measuring binding affinity of monofunctional Fab fragments of the antibody. To obtain monofunctional Fab fragments, an antibody (for example, IgG) can be cleaved with papain or expressed recombinantly. […] Biotinylated WGA can be coated on the SA chip to facilitate capturing Lipoparticles containing CXCR4 proteins. […] J. Mol. Recognit. 12, 279-284 (1999).
The concentrations of the Fab proteins are determined by ELISA and/or SDS-PAGE electrophoresis using a Fab of known concentration (as determined by amino acid analysis) as a standard. Kinetic association rates (kon) and dissociation rates (koff) are obtained simultaneously by fitting the data globally to a 1:1 Langmuir binding model (Karlsson, R. Roos, H. Fagerstam, L. Petersson, B. (1994). Methods Enzymology 6. 99-110) using the BIAevaluation program. Equilibrium dissociation constant (KD) values are calculated as koff/kon.
The binding affinity of each Fab was determined using human CXCR4-enriched lipoparticles (LEV101, Integral Molecular, Philadelphia Pa.). Biotinylated WGA (Sigma Aldrich, St. Louis Mo.)) can be coated on the SA chip to facilitate capturing lipoparticles containing CXCR4 proteins. […] J. Mol. Recognit. 12, 279-284 (1999).

T1 sequence (P61073 whole entry): as above

| MFI 0.25 μg/ml [1] | MFI 2.5 μg/ml [1] | Ka (1/MS) [2] | Kd [2] | Molecule |
| --- | --- | --- | --- | --- |
| 1251 | 4521 |  |  | h3G10.A57 VH/h3G10.A11 VL: Fab; VH SEQ ID NO:23, VL A11 (probably A11A, SEQ ID NO:51) (antibody, V domains shown, Fab) VH: EVQLVESGGGLVQPGGSLRLSCAASGFTFSDYYMSWVRQAPGKGLEWVGFIRHKANFYTTEYSTSVKGRFTISRDDSKNSLYLQMNSLKTEDTAVYYCARDLPGFAYWGQGTLVTVSS VL: DIVMTQSPDSLAVSLGERATINCKSAQSLFNSRTRKNYLAWYQQKPGQPPKLLIYWASARESGVPDRFSGSGSGTDFTLTISSLQAEDVAVYYCKQSFRLRTFGGGTKVEIK |
|  |  | 1.60E+06 1/MS | 0.00063 s⁻¹ | h3G10.A57 VH/h3G10.A58A VL: Fab; VH SEQ ID NO:23, VL SEQ ID NO:57 (antibody, V domains shown, Fab) VH: EVQLVESGGGLVQPGGSLRLSCAASGFTFSDYYMSWVRQAPGKGLEWVGFIRHKANFYTTEYSTSVKGRFTISRDDSKNSLYLQMNSLKTEDTAVYYCARDLPGFAYWGQGTLVTVSS VL: DIVMTQSPDSLAVSLGERATINCKSSQSLFNSHTRKNYLAWYQQKPGQPPKLLIYWASARGSGVPDRFSGSGSGTDFTLTISSLQAEDVAVYYCKQSFRLRTFGGGTKVEIK |
|  |  | 1.17E+06 1/MS | 0.00143 s⁻¹ | h3G10.A57 VH/h3G10 VL: Fab; VH SEQ ID NO:23, VL SEQ ID NO:47 (antibody, V domains shown, Fab) VH: EVQLVESGGGLVQPGGSLRLSCAASGFTFSDYYMSWVRQAPGKGLEWVGFIRHKANFYTTEYSTSVKGRFTISRDDSKNSLYLQMNSLKTEDTAVYYCARDLPGFAYWGQGTLVTVSS VL: DIVMTQSPDSLAVSLGERATINCKSSQSLFNSRTRKNYLAWYQQKPGQPPKLLIYWASARESGVPDRFSGSGSGTDFTLTISSLQAEDVAVYYCKQSFNLRTFGGGTKVEIK |
|  |  | 2.30E+06 1/MS | 0.0008 s⁻¹ | h3G10.2.37 VH/h3G10.2.72 VL: Fab; VH SEQ ID NO:35, VL SEQ ID NO:49 (antibody, V domains shown, Fab) VH: EVQLVESGGGLVQPGGSLRLSCAASGFTFSDYYMSWVRQAPGKGLEWVGFIRHKANFYTREYSTSVKGRFTISRDDSKNSLYLQMNSLKTEDTAVYYCARDLPGFAYWGQGTLVTVSS VL: DIVMTQSPDSLAVSLGERATINCKSSQSLFNSRTRKNYLAWYQQKPGQPPKLLIYWASARESGVPDRFSGSGSGTDFTLTISSLQAEDVAVYYCKQSFRLRTFGGGTKVEIK |
|  |  | 9.08E+05 1/MS | 0.000341 s⁻¹ | h3G10.1.91 VH/h3G10.A58A VL: Fab; VH SEQ ID NO:33, VL SEQ ID NO:57 (antibody, V domains shown, Fab) VH: EVQLVESGGGLVQPGGSLRLSCAASGFTFSDYYMSWVRQAPGKGLEWVGFIRHKANFETTEYSTSVKGRFTISRDDSKNSLYLQMNSLKTEDTAVYYCARDLPGFAYWGQGTLVTVSS VL: DIVMTQSPDSLAVSLGERATINCKSSQSLFNSHTRKNYLAWYQQKPGQPPKLLIYWASARGSGVPDRFSGSGSGTDFTLTISSLQAEDVAVYYCKQSFRLRTFGGGTKVEIK |
|  |  | 1.29E+06 1/MS | 0.000418 s⁻¹ | h3G10.2.37 VH/h3G10.A58A VL: Fab; VH SEQ ID NO:35, VL SEQ ID NO:57 (antibody, V domains shown, Fab) VH: EVQLVESGGGLVQPGGSLRLSCAASGFTFSDYYMSWVRQAPGKGLEWVGFIRHKANFYTREYSTSVKGRFTISRDDSKNSLYLQMNSLKTEDTAVYYCARDLPGFAYWGQGTLVTVSS VL: DIVMTQSPDSLAVSLGERATINCKSSQSLFNSHTRKNYLAWYQQKPGQPPKLLIYWASARGSGVPDRFSGSGSGTDFTLTISSLQAEDVAVYYCKQSFRLRTFGGGTKVEIK |
|  |  | 1.10E+06 1/MS | 0.0013 s⁻¹ | h3G10.A57 VH/h3G10.2.72 VL: Fab; VH SEQ ID NO:23, VL SEQ ID NO:49 (antibody, V domains shown, Fab) VH: EVQLVESGGGLVQPGGSLRLSCAASGFTFSDYYMSWVRQAPGKGLEWVGFIRHKANFYTTEYSTSVKGRFTISRDDSKNSLYLQMNSLKTEDTAVYYCARDLPGFAYWGQGTLVTVSS VL: DIVMTQSPDSLAVSLGERATINCKSSQSLFNSRTRKNYLAWYQQKPGQPPKLLIYWASARESGVPDRFSGSGSGTDFTLTISSLQAEDVAVYYCKQSFRLRTFGGGTKVEIK |
|  |  | 6.88E+05 1/MS | 0.000515 s⁻¹ | h3G10.A57 VH/h3G10.A58B VL: Fab; VH SEQ ID NO:23, VL SEQ ID NO:73 (antibody, V domains shown, Fab) VH: EVQLVESGGGLVQPGGSLRLSCAASGFTFSDYYMSWVRQAPGKGLEWVGFIRHKANFYTTEYSTSVKGRFTISRDDSKNSLYLQMNSLKTEDTAVYYCARDLPGFAYWGQGTLVTVSS VL: DIVMTQSPDSLAVSLGERATINCKSSQSLFNSHTRKNYLAWYQQKPGQPPKLLIYWASARGSGVPDRFSGSGSGTDFTLTISSLQAEDVAVYYCKQSFNLRTFGGGTKVEIK |
| 4513 | 8908 |  |  | h3G10.B44 VH/h3G10.2.72 VL: Fab; VH SEQ ID NO:25, VL SEQ ID NO:49 (antibody, V domains shown, Fab) VH: EVQLVESGGGLVQPGGSLRLSCAASGFTFSDYYMSWVRQAPGKGLEWVSFIRHKANFYTTEYSTSVKGRFTISRDNSKNTLYLQMNSLRAEDTAVYYCAKDLPGFAYWGQGTLVTVSS VL: DIVMTQSPDSLAVSLGERATINCKSSQSLFNSRTRKNYLAWYQQKPGQPPKLLIYWASARESGVPDRFSGSGSGTDFTLTISSLQAEDVAVYYCKQSFRLRTFGGGTKVEIK |
|  |  | 8.03E+05 1/MS | 0.000286 s⁻¹ | h3G10.1.91 VH/h3G10.A58B VL: Fab; VH SEQ ID NO:33, VL SEQ ID NO:73 (antibody, V domains shown, Fab) VH: EVQLVESGGGLVQPGGSLRLSCAASGFTFSDYYMSWVRQAPGKGLEWVGFIRHKANFETTEYSTSVKGRFTISRDDSKNSLYLQMNSLKTEDTAVYYCARDLPGFAYWGQGTLVTVSS VL: DIVMTQSPDSLAVSLGERATINCKSSQSLFNSHTRKNYLAWYQQKPGQPPKLLIYWASARGSGVPDRFSGSGSGTDFTLTISSLQAEDVAVYYCKQSFNLRTFGGGTKVEIK |
|  |  | 7.97E+05 1/MS | 0.000449 s⁻¹ | h3G10.2.37 VH/h3G10.A58B VL: Fab; VH SEQ ID NO:35, VL SEQ ID NO:73 (antibody, V domains shown, Fab) VH: EVQLVESGGGLVQPGGSLRLSCAASGFTFSDYYMSWVRQAPGKGLEWVGFIRHKANFYTREYSTSVKGRFTISRDDSKNSLYLQMNSLKTEDTAVYYCARDLPGFAYWGQGTLVTVSS VL: DIVMTQSPDSLAVSLGERATINCKSSQSLFNSHTRKNYLAWYQQKPGQPPKLLIYWASARGSGVPDRFSGSGSGTDFTLTISSLQAEDVAVYYCKQSFNLRTFGGGTKVEIK |
|  |  | 1.50E+06 1/MS | 0.00049 s⁻¹ | h3G10.1.91 VH/h3G10.2.72 VL: Fab; VH SEQ ID NO:33, VL SEQ ID NO:49 (antibody, V domains shown, Fab) VH: EVQLVESGGGLVQPGGSLRLSCAASGFTFSDYYMSWVRQAPGKGLEWVGFIRHKANFETTEYSTSVKGRFTISRDDSKNSLYLQMNSLKTEDTAVYYCARDLPGFAYWGQGTLVTVSS VL: DIVMTQSPDSLAVSLGERATINCKSSQSLFNSRTRKNYLAWYQQKPGQPPKLLIYWASARESGVPDRFSGSGSGTDFTLTISSLQAEDVAVYYCKQSFRLRTFGGGTKVEIK |
| 2921 | 6830 |  |  | h3G10.A57 VH/h3G10.B12 VL: Fab; VH SEQ ID NO:23, VL B12 (probably B12A, SEQ ID NO:61) (antibody, V domains shown, Fab) VH: EVQLVESGGGLVQPGGSLRLSCAASGFTFSDYYMSWVRQAPGKGLEWVGFIRHKANFYTTEYSTSVKGRFTISRDDSKNSLYLQMNSLKTEDTAVYYCARDLPGFAYWGQGTLVTVSS VL: DIVMTQSPDSLAVSLGERATINCKSSQSLFNSRTRKNYLLWYQQKPGQPPKLLIYWASARESGVPDRFSGSGSGTDFTLTISSLQAEDVAVYYCKQSFRLRTFGGGTKVEIK |
|  |  | 1.60E+06 1/MS | 0.003 s⁻¹ | h3G10 VH/h3G10 VL: Fab; VH SEQ ID NO:21, VL SEQ ID NO:47 (antibody, V domains shown, Fab) VH: EVQLVESGGGLVQPGGSLRLSCAASGFTFSDYYMSWVRQAPGKGLEWVGFIRHKANGYTTEYSTSVKGRFTISRDDSKNSLYLQMNSLKTEDTAVYYCARDLPGFAYWGQGTLVTVSS VL: DIVMTQSPDSLAVSLGERATINCKSSQSLFNSRTRKNYLAWYQQKPGQPPKLLIYWASARESGVPDRFSGSGSGTDFTLTISSLQAEDVAVYYCKQSFNLRTFGGGTKVEIK |
